The values that follow come from the DeepSol protein solubility set.

A short description of the data set: soluble on expression in E. coli; label from the status in PepcDB or PDB records.
With “MGSDKIHHHHHHMITFDEIIPGVTDILKEYSKELDQMAPILVNRDLNGRVRLIIKDDIRGNSHAEGVLDKISKALHQRLGAHGFPPERIVLFETDMQTVLAETPCFPLDGVEGVSVADRLVTESNWSKGIAPTETVPRIVFFSIKGGVGRSTSLAAAAWALAESGKRVLVLDMDLESPGLSSSLLPQDRRPKFGITDWLVEDLVDNGDRVISDMIATSPLSRNGDIYVVPAHGADPGEYIAKLGRVWMPKVNAEGRRILWVQRLQGLLNALEDRLKPDVILLDSRAGIDEVASACVTDLGASSVLLFALDGDQTWSGYRILFRHWRQSGVVRDIRERLQVVGAMIPDVDAAGYYADLLESSWNAFSEELYDEIPAGLSANGEDYWNFDQADEAAPHYPWSIRWNRGFSAMRSLHNRFDTVDAEQVNYVFGDFLTGLAASVQNEEDER”, the “soluble on expression in E. coli” value was “not soluble”.

As to “MVCVSFPLFPEREADLCQRLVHLLDELRHHFVEIGHVLRIPLNDDVVNAFAFHARVVVCKEPCVFSGHPHAVLHLGHVRRLDGFETAKAEFHEVAGGERAFKLKAEPVTAQAVRGAGGAHALVTEQDRRLRDFHVSGELEEGAGVFFVLLAPGQRLGVNLWRYTGAYLGEQGVEVGHFHVCPFAARSRLGNDVVSVRGSNNSEP”, the “soluble on expression in E. coli” value is recorded as “not soluble”.

For “MEPADEPSELVSAEGRNRKAVLCQRCGSRVLQPGTALFSRRQLFLPSMRKKPALSDGSNPDGDLLQEHWLVEDMFIFENVGFTKDVGNIKFLVCADCEIGPIGWHCLDDKNSFYVALERVSHE”, the “soluble on expression in E. coli” value is on record as “soluble”.

“MGSDKIHHHHHHMTDRSAVPVDSPAGSTRTVILEKALELFAETGFNGVSMRRIAQEVGINPATLYHHFVHKEDLYEQVLRFAYAEQAAHFSALVSIEGTPQSQLGEFIREFAFYIAKDQHFFRLVKREQLEGNSERLKMLVDLLFGKQYEAMVRSVGRVTQAFDTHMLVTSLLGLVLHHYETRHMRQFFVEYMPSQDDPEVVADHCCRLFFFGIQGAGAAQEVPYRSEQSLLSADGEHSRDGAG”: the “soluble on expression in E. coli” value was “not soluble”.

“MGRFQTLDYEIPESMQRSWQDIVNLLAQIADVPTTLIMRVHQNHIEVNTSSDTQGNPYKAGDKEDLGHGLYCEHVIETKSQLVVPDALADEKWSNNPDIKLGMLSYCGLPLFWPNGETFGTICMLDSKANEYSETYRQLLNTFKDSIEAQLAVVYQQYKLLR”: the “soluble on expression in E. coli” value is listed as “not soluble”.

Take “MKNTELEQLINDKLNSAAISDYAPNGLQVEGKETVQKIVTGVTASQALLDEAVRLQADAVIVHHGYFWKGESPVIRGMKRRRLKTLLANDINLYGWHLPLDAHPELGNNAQLAALLGITVKGEIEPLVPWGELSMPVPGLELASWIEARLGRKPLWCGDTGPENVQRVAWCTGGGQSFIDSAARFGVDAFITGEVSEQTIHSAREQGLHFYAAGHHATERGGIRALSEWLNENTALDVTFIDIPNPALEHHHHHH”: the “soluble on expression in E. coli” value is recorded as “soluble”.

On to “MTCDDWNSFIQVNIYGKTIEGLQQQGVVLESLLNNIGCSKLWIVEGSMYTSLTNESSTYSESTIEPVVPLSTTLATNKLPRFSTPAVGHSKYNSAKNFTLNLAEKLSEILSDDDKTDKCLENSYQSETSREDVIQDLLEEMVQTVADVDQAPILLSTTLANIGVPRFSTPIKPQNGLDRKFTMNMTERISEIDSNYQGYELFEDSSNDCTTLIPNCQEVESSFYRALPEAASSIVPYQEGKRRSSRRLSTLSSLKETVKIEPTVSKLTKRRRLTSIESSNETMVPHSEPIPLDKDGFSYEQPINEYGDNESFLSAKSLCTEPRSSISEDVKPVLKATDSERTVSIGNHIVDHHPVIELSTEHNTMGEFQYDFDDEDTVLIGNYEEVGTEIDEAEQQNEENSEDDEEDESPIPSTKKVSFAVPVVQRLNKRNEQMNKNHIIKCNFEGCKQILSWKLRYGKQRLLDHAMTHENEKCLVCRTCEYSCSTHPQMKYHYQKMHPEVRCDGFNIQKVFNIEFDEVAIFDLFQKCFGAHSSIIGNIGKPRRYKKCKNSLKNTPEVDNENVDKDSPGPSHDLF”, for which the “soluble on expression in E. coli” value was “not soluble”.

Consider “MQNHVISLASAAERRAHIAATFGARGIPFQFFDALMPSERLEQAMAELVPGLSAHPYLSGVEKACFMSHAVLWKQALDEGLPYIAVFEDDVLLGEGAEKFLAEDAWLKERFDPDSAFIVRLETMFMHVLTSPSGVADYCGRAFPLLESEHWGTAGYIISKKAIRFFLQHFVMLQPEQIKPIDLMMFSDFFDKEGMPVYQVSPALCAQELHYAKFHDQNSALGSLIEHDRLLNRKQQRRDSPANTFKRRLIRALTKISLEHHHHHH”, for which the “soluble on expression in E. coli” value is given as “soluble”.

On to “MHHHHHHMGLELYLDLLSQPCRAVYIFAKKNDIPFELRIVDLIKGQHLSDAFAQVNPLKKVPALKDGDFTLTESVAILLYLTRKYKVPDYWYPQDLQARARVDEYLAWQHTTLRRSCLRALWHKVMFPVFLGEPVSPQTLAATLAELDVTLQLLEDKFLQNKAFLTGPHISLADLVAITELMHPVGAGCQVFEGRPKLATWRQRVEAAVGEDLFQEAHEVILKAKDFPPADPTIKQKLMPWVLAMIR”, for which the “soluble on expression in E. coli” value was “soluble”.

As to “MSLRSPLEPGAPDALLTVIVIVEHLDHKEEVIVQGREIVPSMDGHFDTIQELNSRFTESAPREKIEIGNRERPFKLHVVNVGDSRAMLVTGESYAALTRDHVPDDPGEWRRIEETGDQVVYSDGCARIRGLAMSRSFGDFVAKEVRTPSPITAKPDIRRFYATWNDVLLLYSDGLHVDGEDWRTNFGMAKQCISSVPKISDVAVCLLQQAYGGGSSDNITVLATKFRKFRRQTSAKLRIFGGLAKSFSEEGHHHHHH”, the “soluble on expression in E. coli” value is “not soluble”.

Take “MKSGERSAVADRAQQIMSAARELLDAEGPDALSMRRIAERVGIRAPSLYKHFADKAALVAGLQAQGLTLLAEVQEAAEAEIGADPPLLVLGYAYRRHALASPHLYRITHGWPLARTALPEGLEDRAALPLARAVHGDINIARSFWAFAHGMVVLELDGRFPPGADLDVAWRTGCEAFTQAIRNRPHGSTA”: the “soluble on expression in E. coli” value was “not soluble”.

Take “MPKIVILPHQDLCPDGAVLEANSGETILDAALRNGIEIEHACEKSCACTTCHCIVREGFDSLPESSEQEDDMLDKAWGLEPESRLSCQARVTDEDLVVEIPRYTINHAREH”: the “soluble on expression in E. coli” value is reported as “soluble”.

“MARLAIGGGSLCPAYGALRMQPVSTFPIYIVSIARARARLEKMLEGASGLGLDLRPVEGVDGKTISPDDWRDFDRRGFELRNGRHALPGEYGCYASHIKALETFLATDAPVAVIVEDDVAFTPDFSERVKAMVAAMPDDAIVKLTNHRRKGFKARKTSALGDTFGRCIYGPQGSSACYIISRRAAERFLKAARRMTLPFDRALECGWGYGTEVYITDKDFLPFGDPDTLVGTRDEYRGSKFARLKRVPAYLSSFYDNIARYIYAYRLEHHHHHH”: the “soluble on expression in E. coli” value is “soluble”.

With “MKKIATATIATAGIATFAFAHHDAQAAEQNNDGYNPNDPYSYSYTYTIDAEGNYHYTWKGNWSPDRVNTSYNYNNYNNYNYYGYNNYSNYNNYSNYNNYNNYQSNNTQSQRTTQPTGGLGASYSTSSSNVHVTTTSAPSSNGVSLSNARSASGNLYTSGQCTYYVFDRVGGKIGSTWGNANNWANAAARSGYTVNNSPAKGAILQTSQGAYGHVAYVEGVNSNGSIRVSEMNYGHGAGVVTSRTISASQAASYNYIHLEHHHHHH”, the “soluble on expression in E. coli” value is recorded as “not soluble”.

For “MGSDKIHHHHHHMPTIVFVGAGSVRYTIKLVGDLAKTPDLYGSRLVLMDIDEERLKATYILVTKYLRELNAEYTVEQTTSLEEALEGADFVINTALYRAPGHEDGYVHYEIMREVGERHGYYRGIDSQELNMVSDYYTLSNYNHLKMSLDIAKAVEKIAPNAWILQTANPVFEITQLVKRLTKAKIVGFCHGYAHVFHLAKVLGVEPEELDWQVAGVNHAIWMNRFRCRGEDLYPKLDEWIEENASRWEPKNPWDVDFSPAAIDMYRFYGMYPIGDTVRSGTWKYHYDLETKKRWYGKFGGIDNEVERPKFYESLREQRKRLMELAKEVEKDPTIELTKVWPEVFTTGSESVEQHIPFINALVNDKKARLVLNVENRGVIKGIPDDVMVEVPVVVDKEGIHPEKIEPDLTDRIKKFYLLPRILRMEWALEAFISGDRRVLEEILVRDPRTRSYEQAVAVIDDILNLPFNEEMKKHYGS”, the “soluble on expression in E. coli” value is reported as “not soluble”.

In the case of “MWGACKVKVHDSLATISITLRRYLRLGATMAKSKFEYVRDFEADDTCLAHCWVVVRLDGRNFHRFAEKHNFAKPNDSRALQLMTKCAQTVMEELEDIVIAYGQSDEYSFVFKRKTNWFKRRASKFMTHVASQFASSYVFYWRDYFEDQPLLYPPGFDGRVVVYPSNQTLKDYLSWRQADCHINNLYNTVFWALIQQSGLTPVQAQGRLQGTLAADKNEILFSEFNINYNNEPPMYRKGTVLIWQKVDEVMTKEIKLPTEMEGKKMAVTRTRTKPVPLHCDIIGDAFWKEHPEILDEDS”, the “soluble on expression in E. coli” value is reported as “soluble”.

On to “MNLHEYQAKQLFARYGLPAPVGYACTTPREAEEAASKIGAGPWVVKCQVHAGGRGKAGGVKVVNSKEDIRAFAENWLGKRLVTYQTDANGQPVNQILVEAATDIAKELYLGAVVDRSSRRVVFMASTEGGVEIEKVAEETPHLIHKVALDPLTGPMPYQGRELAFKLGLEGKLVQQFTKIFMGLATIFLERDLALIAINPLVITKQGDLICLDGKLGADGNALFRQPDLREMRDQSQEDPREAQAAQWELNYVALDGNIGCMVNGAGLAMGTMDIVKLHGGEPANFLDVGGGATKERVTEAFKIILSDDKVKAVLVNIFGGIVRCDLIADGIIGAVAEVGVNVPVVVRLEGNNAELGAKKLADSGLNIIAAKGLTDAAQQVVAAVEGK”, for which the “soluble on expression in E. coli” value is listed as “soluble”.

In the case of “MQVHVIRRENRALYAGLLEKYFRIRHQIYVVERGWKELDRPDGREIDQFDTEDAVYLLGVDNDDIVAGMRMVPTTSPTLLSDVFPQLALAGPVRRPDAYELSRIFVVPRKRGEHGGPRAEAVIQAAAMEYGLSIGLSAFTIVLETWWLPRLVDQGWKAKPLGLPQDINGFSTTAVIVDVDDDAWVGICNRRSVPGPTLEWRGLEAIRRHSLPEFQVIS”, the “soluble on expression in E. coli” value was “not soluble”.

“MSPQVSIVIPNHDYGRYLDACLDSLAAQTLPVQRMEVIVVDDASGDDSLERAARWQACHPWKAFTVVPLSRVGRPGPVRNAGLRRAQAALMLCLDPDDTLAPEALVRMVEALDNAPHAHVASSDYFEHRGEHIRRVNIPDDDSNVLPTQNPCHSASLFRREVWEATGGYTAATAYEDWDFWVRAASCGMRRVRVPYPLVHYRLRDDGFWVGASADDAKAKAAIVRRTPAFFAPEVRGWAVAILRGETWMPAFPRGVIPTAEALRAFRDDCMARLGPQADSLFTALPGWPRKTGESSRSGETGQSGLEHHHHHH”: the “soluble on expression in E. coli” value is “not soluble”.

As to “NDRFQWTSTLNGTYLKNRVERLSGGENDFINGSSPAAGMVDYATIIKPGEAIGTFWGYEWTGLDEKGHDTYTDVDGNQMIDGGDRKVIGKANPDFTLGWNNSLSYKNWDLNLFFNGSFGAKRLNLVRYTMASAEGNSRFVTLADAYLKGFDKIGSSATYPSLTEGGNNLQPVSTKWLENADFLRLENISLSYTFPKKTTGFADLRLTFSCQNLFTITGYKGMDPAGTTFSNSSVDVDAGIDMGAYPSPRTFTFGLRMNF”, the “soluble on expression in E. coli” value was “not soluble”.

Regarding “MGSDKIHHHHHHMNYTQGSLFENIENIPLAGRMRPRNLSDYIGQEHILEKGKALRNMLEKDSITSMILWGPPGVGKTTLAMIIASTTKCNFVEFSAATSGIKEIKDIMIKAEKDRLFGIRTLLFIDEIHRFNKSQQDTFLPHVEKGDIILIGATTENPSFEVNSALLSRCRVFVLKPLSNNDIVKLLKNALTDTRGFKNKNIQISEDLLTLIAVYSNGDARTALNVLEMAVLSSKLEHGVVTINKGILEDCMQNKALIYDKNGEEHYNLISALHKSMRNSDVDAAIYWLARMLEGGEDPLYIARRLIRFSSEDIGVADTNALNVTVNVYNSCHYIGMPECSVNLTEAVVYLSLAPKSNSIYMAYEKAKKDAKETLASGVPLHLRNAPTKLMSDLGYSKGYKYAHDFDNKVVDMQCLPDNLKDEKYYFPTTEGREKLFKERLHYIKKKKHTVNKSI”, the “soluble on expression in E. coli” value is recorded as “not soluble”.
